The record followed here is patent US12303551B2, “Cellular immunotherapy compositions and uses thereof” (CERO THERPEUTICS HOLDINGS, INC., priority 2018, dated 2025).

In experiment [1] the test system is SCC152 cells. Nature of the experiment: Magnitude breadth analysis of phagocytosis by CER type (pHrodo red / CELLTRACE violet microscopy). As to conditions: 8 hours co-culture with SCC152, CD8+/E7 TCR 1:1. It counts as cell-based. The protocol:
Top image is an enlargement of a cell in the lower left image showing a SCC152 cell engulfed by CER126-transduced CD4+ T cell. […] White arrow indicates CD8+ T cell transduced with E7-specific TCR and that is pHrodo Red negative (lower left panel of FIG. 60B). Software rendition of phagocytosis (lower right panel of FIG. 60B).
Various CER-modified CD4+ T cells were also evaluated for breadth of response to determine whether a particular CER confers a broad phagocytic response of low magnitude (e.g., 10% engulfment in 90% of cells) or a less frequent but strong phagocytic response (e.g., 90% engulfment in 10% of cells) in the host cells. CD8+ T cells were transduced with HPV16 E7 specific TCR as described in Example 1. CD4+ T cells were transduced with lentiviral vectors comprising a CER21, CER27, CER104, CER116, or CER117 nucleic acid. Mock-transduced (vector alone) CD4+ T cell were used as control. CD4+/CER+ and CD8+/E7 TCR+ T cells were stained with CELLTRACE violet. HPV16 E7+ head and neck squamous cell carcinoma cells (SCC152) were stained with pHrodo red. HPV16 E7 TCR transduced CD8+ T cells and selected CER transduced CD4+ T cells were mixed at a 1:1 ratio and co-cultured with SCC152 cells at a 1:1 ratio for 8 hours. Phagocytosis of target SCC152 cells by CER-transduced CD4+ T cells was analyzed by fluorescence microscopy. […] The horizontal axis represents the % area of CER-transduced CD4+ T cells having engulfment or % area of the CER-transduced CD4+ T cells taken up by target SCC152 cells. This measure was rarely above 40% across CER types tested. The vertical axis represents the proportion of CER-transduced CD4+ T cells that were phagocytic. For CER104, about 20% of CER104-transduced CD4+ T cells have more than 10% engulfment. For CER117-transduced CD4+ T cells, less than 10% have more than 10% engulfment.

Experiment [2] concerns SCC152 target cells. Nature of the experiment: Lactate dehydrogenase (LDH) cytotoxicity assay in SCC152 co-culture. It counts as cell-based. The following applies: CD4+/CER + CD8+/HPV16 E7 TCR 1:1; 4 hours co-culture, varying target:effector ratios. The protocol:
FIG. 19 is a bar graph showing a lactate dehydrogenase (LDH) cytotoxicity assay performed 4 hours after co-culture of CD8+ T cells transduced with a HPV16 E7 TCR and CD4+ T cells transduced with CER104 at a 1:1 ratio with SCC152 target cells at varying target cell:effector cell ratios (0.5:1, 1:1, 1:2.5, 1:5, 1:10, 1:20).
LDH is a cytosolic enzyme that is released by a cell into cell culture media when the plasma membrane is damaged. Thus, LDH's presence in culture medium is a marker for cell death. LDH assays are capable of detecting low level damage to cell membrane which cannot be detected using other methods. LDH may be detected using colorimetric or fluorometric methods.

Experiment [3] concerns SCC152 HPV+ Head & Neck Squamous Carcinoma. Nature of the experiment: SCC152 xenograft in NSG mice, tumor caliper measurements. It counts as in vivo. The following applies: 3×10^6 CER CD4+ T cells added to 1×10^6 E7 TCR CD8+ T cells; versus E7 TCR CD8+ T cells alone. An excerpt: 1×10^^6 CD8^+ T cells engineered with a HPV E7 specific TCR were infused with or without 3×10^6 CD4+ T cells engineered with CER104. Data represents mean value of tumor caliper measurements (n=5 mice per group).
Cellular immunotherapy composition combination comprising HPV E7 specific TCR modified CD8+ T cells (1×10^6) (as described in Example 1) and hCER104 modified CD4+ T cells (3×10^6) were infused into head neck squamous cell cancer mouse model generated by injecting HPV+ SCC152 cells into NSG mice and compared with SCC152 xenograft mice treated with HPV E7 specific TCR modified CD8+ T cells alone (n=5 mice/treatment group).

The subject of experiment [4] is SCC152 target cells. Nature of the experiment: Phagocytosis of SCC152 by CD4+ T cell/CER, fluorescence microscopy with hybrid capture. The experiment is classed as cell-based. As to conditions: TRAF-domain CERs, 4 hours, 1:1:0.5 (CD8:CD4:target cell); versus CD4+ control + CD8+/E7 TCR. The procedure:
FIG. 28 is a bar graph representing quantification of CD4+ T cell-CER mediated phagocytosis of SCC152 target cells. Results calculated as ((number of phagocytic target events)/(total number of effectors))*100 from 3×3 40× images, 4 hours after initiation of co-culture assay. CD8+ T cells transduced with HPV16 E7 TCR and CD4+ T cells transduced with selected CERs (CER5, CER17, CER19, CER21, CER23, CER26, CER27, CER103b, CER104, CER105, CER106, or CER116) were co-cultured with SCC152 squamous head and neck carcinoma target cells at a 1:1:0.5 ratio for 4 hours and imaged.
FIG. 29 is a bar graph representing quantification of CD4+ T cell-CER mediated phagocytosis of SCC152 target cells. Results calculated as (median area ratio of target events in effector cells*% phagocytosis) from 3×3 40× images, 4 hours after initiation of co-culture assay. CD8+ T cells transduced with HPV16 E7 TCR and CD4+ T cells transduced with selected CERs (CER5, CER17, CER19, CER21, CER23, CER26, CER27, CER103b, CER104, CER105, CER106, or CER116) were co-cultured with SCC152 squamous head and neck carcinoma target cells at a 1:1:0.5 ratio for 4 hours and imaged.
(§1) FIG. 55 is a bar graph representing quantification of CD4+ T cell-CER mediated phagocytosis of SCC152 target cells. Percent phagocytosis was calculated as ((number of phagocytic target events)/(total number of effector cells))*100. These numbers were calculated from 3×3 images captured by Keyence BZ-X710 fluorescence microscope at 40× resolution, 4 hours after initiation of co-culture assay. CD8+ T cells transduced with HPV16 E7 TCR and CD4+ T cells transduced with a selected CER (CER29, CER30, CER110, CER112, CER113, CER114, CER116, or CER117) were co-cultured with SCC152 target cells at a 1:1:0.5 ratio (CD8:CD4:target cell) for 4 hours and imaged.
as §1, with “56” for “55”, “Adjusted phagocytic index” for “Percent phagocytosis”, “(median area ratio” for “((number”, “of” for “of phagocytic”, “events in” for “events)/(total number of”, “cells*% phagocytosis).” for “cells))*100.”
Phagocytic activity of CD4+ T cell/CER+CD8+ T cell/HPV16 E7 TCR combinations co-cultured with SCC152 cells was visualized and quantified using KEYENCE BZ-X710 fluorescence microscope, […] and hybrid capture software.

B1: CER104: Chimeric engulfment receptor: Tim4 binding, Tim4 transmembrane, TLR8 and DAP12 signaling; SEQ ID NO: 139 (protein)
chain: MSKGLLLLWLVTELWWLYLTPAASEDTIIGFLGQPVTLPCHYLSWSQSRNSMCWGKGSCPNSKCNAELLRTDGTRIISRKSTKYTLLGKVQFGEVSLTISNTNRGDSGVYCCRIEVPGWFNDVKKNVRLELRRATTTKKPTTTTRPTTTPYVTTTTPELLPTTVMTTSVLPTTTPPQTLATTAFSTAVTTCPSTTPGSFSQETTKGSAFTTESETLPASNHSQRSMMTISTDIAVLRPTGSNPGILPSTSQLTTQKTTLTTSESLQKTTKSHQINSRQTILIIACCVGFVLMVLLFLAFLHHLFYWDVWFIYNVCLAKVKGYRSLSTSQTFYDAYISYDTKDASVTDWVINELRYHLEESRDKNVLLCLEERDWDPGLAIIDNLMQSINQSKKTVFVLTKKYAKSWNFKTAFYLALQRLMDENMDVIIFILLEPVLQHSQYLRLRQRICKSSILQWPDNPKAEGLFWQTLRNVVLTENDSRYNNMYVDSIKQYYFLGRLVPRGRGAAEAATRKQRITETESPYQELQGQRSDVYSDLNTQRPYYK
modifications: CER104, amino acids 1-22 are signal peptide
As for B1, the “proportion of CER-transduced CD4+ T cells having more than 10% engulfment” value in experiment [1] was “about 20%”. The “cytolytic activity (LDH release)” value in experiment [2] is listed as “enhanced cytolytic activity”. Besides, the “tumor killing (tumor volume by caliper)” value in experiment [3] is “enhanced tumor killing in vivo”.

B2: CER116: Chimeric engulfment receptor: Tim4 binding, Tim4 transmembrane, TRAF6 and TLR8 signaling; SEQ ID NO: 152 (protein)
chain: MSKGLLLLWLVTELWWLYLTPAASEDTIIGFLGQPVTLPCHYLSWSQSRNSMCWGKGSCPNSKCNAELLRTDGTRIISRKSTKYTLLGKVQFGEVSLTISNTNRGDSGVYCCRIEVPGWFNDVKKNVRLELRRATTTKKPTTTTRPTTTPYVTTTTPELLPTTVMTTSVLPTTTPPQTLATTAFSTAVTTCPSTTPGSFSQETTKGSAFTTESETLPASNHSQRSMMTISTDIAVLRPTGSNPGILPSTSQLTTQKTTLTTSESLQKTTKSHQINSRQTILIIACCVGFVLMVLLFLAFLMSLLNCENSCGSSQSESDCCVAMASSCSAVTKDDSVGGTASTGNLSSSFMEEIQGYDVEFDPPLESKYECPICLMALREAVQTPCGHRFCKACIIKSIRDAGHKCPVDNEILLENQLFPDNFAKREILSLMVKCPNEGCLHKMELRHLEDHQAHCEFALMDCPQCQRPFQKFHINIHILKDCPRRQVSCDNCAASMAFEDKEIHDQNCPLANVICEYCNTILIREQMPNHYDLDCPTAPIPCTFSTFGCHEKMQRNHLARHLQENTQSHMRMLAHHLFYWDVWFIYNVCLAKVKGYRSLSTSQTFYDAYISYDTKDASVTDWVINELRYHLEESRDKNVLLCLEERDWDPGLAIIDNLMQSINQSKKTVFVLTKKYAKSWNFKTAFYLALQRLMDENMDVIIFILLEPVLQHSQYLRLRQRICKSSILQWPDNPKAEGLFWQTLRNVVLTENDSRYNNMYVDSIKQY
modifications: CER116, amino acids 1-22 are signal peptide
With B2, in experiment [4], the “engulfment of SCC152 target cells (percent phagocytosis, adjusted phagocytic index)” value is “enhanced engulfment”.

B3: CER117: Chimeric engulfment receptor: Tim4 binding, Tim4 transmembrane, TLR8 and TRAF6 signaling; SEQ ID NO: 153 (protein)
chain: MSKGLLLLWLVTELWWLYLTPAASEDTIIGFLGQPVTLPCHYLSWSQSRNSMCWGKGSCPNSKCNAELLRTDGTRIISRKSTKYTLLGKVQFGEVSLTISNTNRGDSGVYCCRIEVPGWFNDVKKNVRLELRRATTTKKPTTTTRPTTTPYVTTTTPELLPTTVMTTSVLPTTTPPQTLATTAFSTAVTTCPSTTPGSFSQETTKGSAFTTESETLPASNHSQRSMMTISTDIAVLRPTGSNPGILPSTSQLTTQKTTLTTSESLQKTTKSHQINSRQTILIIACCVGFVLMVLLFLAFLHHLFYWDVWFIYNVCLAKVKGYRSLSTSQTFYDAYISYDTKDASVTDWVINELRYHLEESRDKNVLLCLEERDWDPGLAIIDNLMQSINQSKKTVFVLTKKYAKSWNFKTAFYLALQRLMDENMDVIIFILLEPVLQHSQYLRLRQRICKSSILQWPDNPKAEGLFWQTLRNVVLTENDSRYNNMYVDSIKQYMSLLNCENSCGSSQSESDCCVAMASSCSAVTKDDSVGGTASTGNLSSSFMEEIQGYDVEFDPPLESKYECPICLMALREAVQTPCGHRFCKACIIKSIRDAGHKCPVDNEILLENQLFPDNFAKREILSLMVKCPNEGCLHKMELRHLEDHQAHCEFALMDCPQCQRPFQKFHINIHILKDCPRRQVSCDNCAASMAFEDKEIHDQNCPLANVICEYCNTILIREQMPNHYDLDCPTAPIPCTFSTFGCHEKMQRNHLARHLQENTQSHMRMLA
modifications: CER117, amino acids 1-22 are signal peptide
B3: in experiment [1], the “proportion of CER-transduced CD4+ T cells having more than 10% engulfment” value was “less than 10%”. In addition, the “engulfment of SCC152 target cells (percent phagocytosis, adjusted phagocytic index)” value in experiment [4] is recorded as “enhanced engulfment”.
